Laboratory results reported in the supplement of paper PMC10567573.

B1: MATN2 (parent)
chain: FSLKTFKRKSEVERAVKRMRHLST

Variants of: B1
Test: protein stability index of a GFP-peptide fusion (GPS, HEK-293T) (PSI 1-6); higher = more stable
Details: c terminus: a fixed tail appended
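Note: lentivirally expressed fusions sorted by FACS into six bins by GFP to DsRed ratio, PSI derived from sequencing read proportions per bin multiplied by bin number.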

Variant	protein stability index
FSLKHFKRKSEVERAVKRMRHLST [T5H]	1.91
FSLKVFKRKSEVERAVKRMRHLST [T5V]	1.8
FSLKPFKRKSEVERAVKRMRHLST [T5P]	2.11
FSLKIFKRKSEVERAVKRMRHLST [T5I]	2.29
FSLKLFKRKSEVERAVKRMRHLST [T5L]	1.58
FSLKAFKRKSEVERAVKRMRHLST [T5A]	1.94
FSLKRFKRKSEVERAVKRMRHLST [T5R]	2.48
FSLKSFKRKSEVERAVKRMRHLST [T5S]	2.4
FSLKQFKRKSEVERAVKRMRHLST [T5Q]	3.18
FSLKKFKRKSEVERAVKRMRHLST [T5K]	2.48
FSLKYFKRKSEVERAVKRMRHLST [T5Y]	1.89
FSLKGFKRKSEVERAVKRMRHLST [T5G]	2.71
FSLKEFKRKSEVERAVKRMRHLST [T5E]	1.47
FSLKFFKRKSEVERAVKRMRHLST [T5F]	2.56
FSLKDFKRKSEVERAVKRMRHLST [T5D]	2.75
FSLKMFKRKSEVERAVKRMRHLST [T5M]	2.91
FSLKTAKRKSEVERAVKRMRHLST [F6A]	2.87
FSLKTKKRKSEVERAVKRMRHLST [F6K]	3.47
FSLKTHKRKSEVERAVKRMRHLST [F6H]	2.94
FSLKTDKRKSEVERAVKRMRHLST [F6D]	2.43
FSLKTIKRKSEVERAVKRMRHLST [F6I]	2.14
FSLKTEKRKSEVERAVKRMRHLST [F6E]	3.27
FSLKTCKRKSEVERAVKRMRHLST [F6C]	2.28
FTLKTFKRKSEVERAVKRMRHLST [S2T]	1.99

Variant	protein stability index
FHLKTFKRKSEVERAVKRMRHLST [S2H]	1.99
FALKTFKRKSEVERAVKRMRHLST [S2A]	1.8
FGLKTFKRKSEVERAVKRMRHLST [S2G]	3.21
FKLKTFKRKSEVERAVKRMRHLST [S2K]	1.95
FMLKTFKRKSEVERAVKRMRHLST [S2M]	2.5
FWLKTFKRKSEVERAVKRMRHLST [S2W]	1.39
FDLKTFKRKSEVERAVKRMRHLST [S2D]	2.77
FCLKTFKRKSEVERAVKRMRHLST [S2C]	1.5
FPLKTFKRKSEVERAVKRMRHLST [S2P]	2.42
FYLKTFKRKSEVERAVKRMRHLST [S2Y]	1.82
FELKTFKRKSEVERAVKRMRHLST [S2E]	2.51
FQLKTFKRKSEVERAVKRMRHLST [S2Q]	3.07
FLLKTFKRKSEVERAVKRMRHLST [S2L]	1.55
FRLKTFKRKSEVERAVKRMRHLST [S2R]	2.36
FVLKTFKRKSEVERAVKRMRHLST [S2V]	3.07
FNLKTFKRKSEVERAVKRMRHLST [S2N]	2.84
WSLKTFKRKSEVERAVKRMRHLST [F1W]	1.69
QSLKTFKRKSEVERAVKRMRHLST [F1Q]	3.62
SSLKTFKRKSEVERAVKRMRHLST [F1S]	2.87
DSLKTFKRKSEVERAVKRMRHLST [F1D]	2.77
ISLKTFKRKSEVERAVKRMRHLST [F1I]	2.39
NSLKTFKRKSEVERAVKRMRHLST [F1N]	3.33
MSLKTFKRKSEVERAVKRMRHLST [F1M]	2.24
KSLKTFKRKSEVERAVKRMRHLST [F1K]	3.46

Variant	protein stability index
HSLKTFKRKSEVERAVKRMRHLST [F1H]	3.6
CSLKTFKRKSEVERAVKRMRHLST [F1C]	2.45
ASLKTFKRKSEVERAVKRMRHLST [F1A]	3.04
VSLKTFKRKSEVERAVKRMRHLST [F1V]	2.56
YSLKTFKRKSEVERAVKRMRHLST [F1Y]	3.13
LSLKTFKRKSEVERAVKRMRHLST [F1L]	2.19
ESLKTFKRKSEVERAVKRMRHLST [F1E]	2.72
GSLKTFKRKSEVERAVKRMRHLST [F1G]	2.86
PSLKTFKRKSEVERAVKRMRHLST [F1P]	3
TSLKTFKRKSEVERAVKRMRHLST [F1T]	3.02
RSLKTFKRKSEVERAVKRMRHLST [F1R]	2.37
FSVKTFKRKSEVERAVKRMRHLST [L3V]	2.11
FSYKTFKRKSEVERAVKRMRHLST [L3Y]	2.15
FSAKTFKRKSEVERAVKRMRHLST [L3A]	2.94
FSQKTFKRKSEVERAVKRMRHLST [L3Q]	2.23
FSDKTFKRKSEVERAVKRMRHLST [L3D]	2
FSTKTFKRKSEVERAVKRMRHLST [L3T]	2.3
FSPKTFKRKSEVERAVKRMRHLST [L3P]	2.13
FSIKTFKRKSEVERAVKRMRHLST [L3I]	2.56
FSSKTFKRKSEVERAVKRMRHLST [L3S]	2.45
FSHKTFKRKSEVERAVKRMRHLST [L3H]	2.78
FSWKTFKRKSEVERAVKRMRHLST [L3W]	3.27
FSKKTFKRKSEVERAVKRMRHLST [L3K]	3.54
FSEKTFKRKSEVERAVKRMRHLST [L3E]	3.08

Variant	protein stability index
FSCKTFKRKSEVERAVKRMRHLST [L3C]	1.93
FSMKTFKRKSEVERAVKRMRHLST [L3M]	2.25
FSGKTFKRKSEVERAVKRMRHLST [L3G]	2.91
FSFKTFKRKSEVERAVKRMRHLST [L3F]	2.23
FSNKTFKRKSEVERAVKRMRHLST [L3N]	1.98
FSRKTFKRKSEVERAVKRMRHLST [L3R]	3
FSLPTFKRKSEVERAVKRMRHLST [K4P]	2.58
FSLFTFKRKSEVERAVKRMRHLST [K4F]	1.85
FSLSTFKRKSEVERAVKRMRHLST [K4S]	2.09
FSLHTFKRKSEVERAVKRMRHLST [K4H]	2.21
FSLITFKRKSEVERAVKRMRHLST [K4I]	2.21
FSLETFKRKSEVERAVKRMRHLST [K4E]	1.8
FSLTTFKRKSEVERAVKRMRHLST [K4T]	2.18
FSLLTFKRKSEVERAVKRMRHLST [K4L]	1.78
FSLQTFKRKSEVERAVKRMRHLST [K4Q]	2.45
FSLGTFKRKSEVERAVKRMRHLST [K4G]	2.28
FSLDTFKRKSEVERAVKRMRHLST [K4D]	2.05
FSLMTFKRKSEVERAVKRMRHLST [K4M]	3.59
FSLRTFKRKSEVERAVKRMRHLST [K4R]	2.38
FSLNTFKRKSEVERAVKRMRHLST [K4N]	2.39
FSLATFKRKSEVERAVKRMRHLST [K4A]	1.69
FSLCTFKRKSEVERAVKRMRHLST [K4C]	1.74
